Reference: the supplement of paper PMC9170038

System: MS2 coat protein
Assay: apparent KD of MS2 coat protein; designed switch direction (-1 OFF switch, 1 ON switch): -1; higher = weaker reporter binding
Method in brief: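 An oligonucleotide input, 200 uM small-molecule ligand, or no input was present during titration of SNAP-549-labelled MS2 coat protein, which was doubled from 0.7 or 1.5 nM to 3 µM. Designed RNA switches had been transcribed on Illumina chips by stalled E. coli RNA polymerase. Apparent KD per design is the median over clusters of curves fitted to normalised cluster fluorescence.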

[1] = input ligand: microRNA oligo, concentration not stated
[2] = Eterna round: R95, input ligand: microRNA oligo, concentration not stated

Sequence | apparent KD of MS2 coat protein (input ligand: FMN 200 uM) | apparent KD of MS2 coat protein (input ligand: none) | apparent KD of MS2 coat protein [1] | apparent KD of MS2 coat protein (Eterna round: R95, input ligand: FMN 200 uM) | apparent KD of MS2 coat protein [2] | apparent KD of MS2 coat protein (Eterna round: R95, input ligand: none)
GUAAACGAUGAGGAUAUAUGAUAUCAAAGCAUCAUAGAAGGCAUCACAUGAGGAUCACCCAUGUGAUCUUCUUG [Mat - Exclusion 6 - JL Mod - D30] (Eterna round: R97, puzzle: Exclusion 6) | 135 nM | 31.3 nM |  |  |  | 
GUAAACGCAGAGGAUAUUUCAGAUCCUAGCUGCAAAGAAGGCUGCACAUGAGGAUCACCCAUGUGGUCCUGAAG [Mat - Exclusion 6 - Eli Mod - D2] (Eterna round: R97, puzzle: Exclusion 6) | 191 nM | 68.2 nM |  |  |  | 
GUAAAUCAUGUAGGAUAUGCAUAGCAAAGCUAUGCAGAAGGACAUGAGGAUCACCCAUGUCAUUCCGUCUGGAGACAGACGGGA [Mat - Exclusion NG 1 - Mod of JL - D58] (Eterna round: R96, puzzle: Exclusion NG 1) | 270 nM | 36.7 nM | 22.5 nM |  |  | 
GUAAUUAAUGUAGGAUAUGCAAGGCGAACCUAAGCAGAAGGACAUGAGGAUCACCCAUGUAUUGCGGUCUGCGUACAGAUCGCU [salish99_ExNG1_r4_008] (Eterna round: R96, puzzle: Exclusion NG 1) | 45.7 nM | 19.9 nM | 18.5 nM |  |  | 
GUAAUUAUAUAGGAUAUCGAACUUAUAAUUUAACGAGAAGGAUGAACAUGAGGAUCACCCAUGUGGUAUCAUGG [JL-ex6-3.07] (puzzle: Exclusion 6) |  |  |  | 131 nM | 207 nM | 284 nM
GUACAUUUAGGAUAUACGGCAGCCAAUGCAAGGGUUCUAUAACAUGAGGAUCACCCAUGUAGAAGGAGAGGGCG [Eternabot (L2) Solution 21] (Eterna round: R97, puzzle: Exclusion 2) | 70.8 nM | 55.2 nM |  |  |  | 
GUACCAAAUGUAGGAUAUGGAUCCGAUUAGGAUCCAGAAGGACAUGAGGAUCACCCAUGUACAUGAGGAUCACCCAUUAGGUAC [Fiskers ExNg1 - 11] (Eterna round: R96, puzzle: Exclusion NG 1) | 97.2 nM | 34.2 nM | 26.3 nM |  |  | 
GUACUACAUGAGGAUCACCCAUGUCAGGAUAUGCGAAUUUCAUCAAAAGAUGAAAUUUGCAGAAGGGACAGUAC [Omei Ex1 A1] (Eterna round: R97, puzzle: Exclusion 1) | 35.3 nM | 24.1 nM |  |  |  | 
GUACUAGAAUAUCAGUCGCACAUGAGGAUCACCCAUGUCAUGGGUAGAUCAAUAAAUAAAGAUACUGCUCGUCUUAU [Cac sensor turnoff var1 sub2] (Eterna round: R97, puzzle: Sensor, turn-off variant 1) | 496 nM | 378 nM |  |  |  | 
GUACUGAAGCUUUGCUUUAGUCGUACAUGAGGAUCACCCAUGUAGGAUAUGGUAGGCAUAGCUUACUAGAAGGAUAGAGUGAUC [Mat - Exclusion NG 3 - Mod of JL - D64] (Eterna round: R96, puzzle: Exclusion NG 3) | 112 nM | 81.3 nM | 86 nM |  |  | 
GUACUGACAGGAUAUACAUGAGGAUCACCCAUGUGCCCUUAAAGAUGCAAAGCAUCAAGUAGAAGGGUCUGUAC [Omei Ex3 Model Bachelor's Dilema v21] (Eterna round: R97, puzzle: Exclusion 3) | 53 nM | 40.5 nM |  |  |  | 
GUAGAGUAAGGAUAUGCUGAAUAGGAUAGAAUGGUUAGAAAGCAGAAGGUACAUGAGGAUCACCCAUGUAAUGU [Excluse me!!!! 18 - Jieux - Exclusion 4] (puzzle: Exclusion 4) |  |  |  |  | 20 nM | 
GUAGAGUCAGGAUAUACAAGAUCGAUAGAUCAAAGACCCAUACAUGAGGAUCACCCAUGUAGAAGGGACUCUAC [Mat - Exclusion 2 - Eli Mod - D11] (Eterna round: R97, puzzle: Exclusion 2) | 23 nM | 18.7 nM |  |  |  | 
GUAGAGUCAGGAUAUACGAGAUCGAAAGAUCGGCGAUCCCUACAUGAGGAUCACCCAUGUAGAAGGGACUCUAC [Eli x2 4.12] (Eterna round: R97, puzzle: Exclusion 2) | 28.7 nM | 14.9 nM |  |  |  | 
GUAGAUCGAGUUAGGAUAUGAUUAAAAUCCGGAUAUCAGAAGGAACUUGAGGAUCACCCAAGUAUAGAUGAUUC [JR_BMEx4_Sub056] (Eterna round: R97, puzzle: Brourd's mod of Exclusion 4) | 216 nM | 47.9 nM |  |  |  | 
GUAGGGUCAGGAUAUACUGGCUGAGGGAUGUAUUGUAGUUGGUAGAAGGGACAUGAGGAUCACCCAUGUAAGAA [JR_Exclu4_Sub056] (puzzle: Exclusion 4) |  |  |  |  | 31.6 nM | 
GUAUAUAGUGUGAGGAUAUGCUGGUCCUUGGAUCAGCAGAAGGCACAUGAGGAUCACCCAUGUAGUUUAUUUUA [Mat - Exclusion 4 - JL Mod - D3] (puzzle: Brourd's mod of Exclusion 4) |  |  |  |  | 25.8 nM | 

Sequence | apparent KD of MS2 coat protein (input ligand: FMN 200 uM) | apparent KD of MS2 coat protein (input ligand: none) | apparent KD of MS2 coat protein [1] | apparent KD of MS2 coat protein (Eterna round: R95, input ligand: FMN 200 uM) | apparent KD of MS2 coat protein [2] | apparent KD of MS2 coat protein (Eterna round: R95, input ligand: none)
GUAUUUUGAGGAUAUACAUGAGGAUCACCCAUGUGUCGUAGCGCCAGCCUUAAUACGUGUAGAAGGCAGAAUGU [Eternabot (L1) Solution 75] (Eterna round: R97, puzzle: Exclusion 3) | 20 nM | 34 nM |  |  |  | 
GUCAGCUCGUCAGGAUAUACAUGAGGAUCACCCAUGUGAUCAAUAGCAGCUUCGGCUGCAUACAUGUAGAAGGGACGAGCUGAU [ENG2/6-B2] (Eterna round: R96, puzzle: Exclusion NG 2) | 195 nM | 160 nM | 15.3 nM |  |  | 
GUCAGCUCGUGAGGAUAUACAUGAGGAUCACCCAUGUGAUCAAUAGCAGCUUCGGCUGCAUACAUGUAGAAGGCACGAGCUGAC [ENG2/6-A1] (Eterna round: R96, puzzle: Exclusion NG 2) | 22.4 nM | 28.5 nM | 19.7 nM |  |  | 
GUCAGCUCGUGAGGAUAUACAUGAGGAUCACCCAUGUGGUCAAUAGCAGCUUCGGCUGCAAUAAUGUAGAAGGCACGAGCUGAC [ENG2/8-D] (Eterna round: R96, puzzle: Exclusion NG 2) | 57.4 nM | 208 nM | 1030 nM |  |  | 
GUCAGCUCGUGAGGAUAUACAUGCGUGCUUCGGCACGAAUUUAAGAUCACAUGAGGAUCACCCAUGUAGAAGGUACGAGCUGAU [ENG2/3-C2] (Eterna round: R96, puzzle: Exclusion NG 2) | 590 nM | 387 nM | 320 nM |  |  | 
GUCAGGAAAGGAUAUACAAGUAGUCACUCUCUUUGCAGUUCACAUGAGGAUCACCCAUGUAGAAGGUUCGGACG [EX2 C.9] (Eterna round: R97, puzzle: Exclusion 2) | 38.9 nM | 14.1 nM |  |  |  | 
GUCAUGUAAGGAUAUCUUACAUGUGACUUCGGUCACUGUCAAGAGAAGGUACAUGAGGAUCACCCAUGUUCGAC [Ex4-3: 52] (Eterna round: R96, puzzle: Exclusion 4) | 26.4 nM | 21 nM | 19.2 nM |  |  | 
GUCAUGUAAGGAUAUCUUACAUGUGACUUCGGUCACUGUCAAGAGAAGGUACAUGAGGAUCACCCAUGUUCGAC [Ex4-3: 52] (puzzle: Exclusion 4) |  |  |  |  | 16.2 nM | 
GUCAUGUUAGGAUAUCUGACAUGUGACUUCGGUCACUGUCCAGAGAAGGAACAUGAGGAUCACCCAUGUUGGAC [Ex4-3: 55] (puzzle: Exclusion 4) |  |  |  |  | 43.2 nM | 
GUCAUGUUAGGAUAUCUGGCAUGUGACUUCGGUCACUGUCCAGAGAAGGAACAUGAGGAUCACCCAUGUUGGAC [Ex4-3: 54] (puzzle: Exclusion 4) |  |  |  |  | 48.2 nM | 
GUCCCACAUGAGGAUCACCCAUGUGAGGAUAUGGUUUCGCUGGCCGUAGCCAGUGGAACCAGAAGGCGCGUGAU [Mat - Exclusion 1 - JL Mod - D17] (Eterna round: R97, puzzle: Exclusion 1) | 75 nM | 74.7 nM |  |  |  | 
GUCCGGCAUGUAGGAUAUGGAUCCGAUUAGGAUCCAGAAGGACAUGAGGAUCACCCAUGUACAUGUAAACAGUCAUCACCGGAC [Fiskers ExNg1 - 13] (Eterna round: R96, puzzle: Exclusion NG 1) | 44.6 nM | 18.7 nM | 14.1 nM |  |  | 
GUCCUCAUGACAUGAGGAUCACCCAUGUAUUAUUUGGUAACUGAGGAUAUACUUUUAAUGUUUAUGUAGAAGGCAGAUACGGUU [JR_ExcNG3_Sub018] (Eterna round: R96, puzzle: Exclusion NG 3) | 197 nM | 62.3 nM | 53 nM |  |  | 
GUCCUCAUGACAUGAGGAUCACCCAUGUAUUAUUUGUUAACUGAGGAUAUACUCUUAAUUUUUAUGUAGAAGGCAGAUUCGGUC [JR_ExcNG3_Sub020] (Eterna round: R96, puzzle: Exclusion NG 3) |  |  | 24.8 nM |  |  | 
GUCCUGAGCGUUAGGAUAUUCACAGUGGACUACUGGAAGAAGGGACAUGAGGAUCACCCAUGUUCGAUACUGGG [Eternabot (L1) Solution 64] (Eterna round: R97, puzzle: Brourd's mod of Exclusion 4) | 72.2 nM | 47.2 nM |  |  |  | 
GUCGUGCGGCUUUGCUGUGCGGGUACAUGAGGAUCACCCAUGUAGGAUAUGGUGCGCUUUGCGUGCCAGAAGGGCGUGCGUUGG [salish99_ExNG3_r04_010] (Eterna round: R96, puzzle: Exclusion NG 3) | 45.7 nM | 36.4 nM | 28 nM |  |  | 
GUCUCAGCUGAGGAUAUAAACUCCCUUGAGGGUUUAGAAGGCAGUACAUGAGGAUCACCCAUGUGGUUCGUUUG [eternacac ex6r4 sub27] (Eterna round: R97, puzzle: Exclusion 6) | 486 nM | 139 nM |  |  |  | 
